Like-named read-outs stand apart in the source and are kept apart here.
How the values were obtained:
[1] = biological target: zebrafish Sts (zfSts, zfSts_tv1) (Danio rerio, UniProt A0ACD6B647); test: HPLC of released estrone; format: biochemical; conditions: 5 μM E1-sulfate, 28°C, 15 min, pH 7.0, 10 mM Ca2+; irreversible inhibitor
[2] = biological target: T1, human STS (Homo sapiens, UniProt P08842); conditions: 5 μM E1-sulfate, 37°C, 15 min, pH 7.0, 10 mM Ca2+; irreversible inhibitor
T1 sequence (P08842 22-583): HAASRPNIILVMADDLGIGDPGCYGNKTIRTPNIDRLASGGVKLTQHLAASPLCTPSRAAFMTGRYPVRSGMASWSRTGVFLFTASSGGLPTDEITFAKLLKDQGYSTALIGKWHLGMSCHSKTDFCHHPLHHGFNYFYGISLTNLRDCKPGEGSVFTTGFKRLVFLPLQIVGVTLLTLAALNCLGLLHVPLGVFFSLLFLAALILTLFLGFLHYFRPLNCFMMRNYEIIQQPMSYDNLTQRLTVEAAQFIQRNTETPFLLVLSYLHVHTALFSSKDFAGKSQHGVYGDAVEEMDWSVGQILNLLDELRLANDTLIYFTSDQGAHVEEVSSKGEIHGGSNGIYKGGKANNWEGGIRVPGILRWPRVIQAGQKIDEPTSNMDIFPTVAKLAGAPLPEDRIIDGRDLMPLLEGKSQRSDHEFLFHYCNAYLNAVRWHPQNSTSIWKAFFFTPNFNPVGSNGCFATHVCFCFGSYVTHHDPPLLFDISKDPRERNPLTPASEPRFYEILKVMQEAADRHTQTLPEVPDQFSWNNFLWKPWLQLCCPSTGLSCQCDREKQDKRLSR

[3] = biological target: T1, human STS; test: HPLC of released estrone; format: biochemical; conditions: 5 μM E1-sulfate, 37°C, 15 min, pH 7.0, 10 mM Ca2+; irreversible inhibitor
[4] = biological target: zebrafish Sts (zfSts, zfSts_tv1) (Danio rerio, UniProt A0ACD6B647, I88V/L437F/N388K); test: HPLC of released estrone; format: biochemical; conditions: read-out: % inhibition at 0.1 μM
Chain of zebrafish Sts (zfSts, zfSts_tv1) (Danio rerio, UniProt A0ACD6B647, I88V/L437F/N388K) (A0ACD6B647 21-584, stated change not applied): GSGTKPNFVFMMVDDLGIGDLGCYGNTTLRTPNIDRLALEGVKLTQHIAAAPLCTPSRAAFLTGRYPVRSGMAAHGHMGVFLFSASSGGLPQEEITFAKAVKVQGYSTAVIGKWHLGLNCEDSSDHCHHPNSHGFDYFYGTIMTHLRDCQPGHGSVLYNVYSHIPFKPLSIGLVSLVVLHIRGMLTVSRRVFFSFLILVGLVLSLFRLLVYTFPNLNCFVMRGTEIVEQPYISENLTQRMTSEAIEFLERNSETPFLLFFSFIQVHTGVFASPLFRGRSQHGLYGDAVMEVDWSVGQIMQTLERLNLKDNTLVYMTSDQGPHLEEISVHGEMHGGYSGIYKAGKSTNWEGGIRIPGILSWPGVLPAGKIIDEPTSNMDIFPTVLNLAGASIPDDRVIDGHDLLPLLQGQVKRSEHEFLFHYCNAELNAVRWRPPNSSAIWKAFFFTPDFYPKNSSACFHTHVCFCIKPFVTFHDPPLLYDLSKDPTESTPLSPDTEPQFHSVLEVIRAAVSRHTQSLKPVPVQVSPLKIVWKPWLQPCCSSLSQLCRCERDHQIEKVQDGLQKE

[5] = system: C[C@]12CC[C@@H]3c4ccc(OS(=O)(=O)O)cc4CC[C@H]3[C@@H]1CCC2=O; test: cells, lysate or membranes; conditions: 28°C, pH 7.0 Hepes, 10 mM Ca2+, 1 mM DTT, labelled compound
[6] = system: [H][C@@]12CCc3cc(OS(=O)(=O)O)ccc3[C@@]1([H])CC[C@]1(C)[C@@H](O)CC[C@@]21[H]; test: cells, lysate or membranes; conditions: 28°C, pH 7.0 Hepes, 10 mM Ca2+, 1 mM DTT, labelled compound
[7] = system: CC(C)CCC[C@@H](C)[C@H]1CC[C@H]2[C@@H]3CC=C4C[C@@H](OS(=O)(=O)O)CC[C@]4(C)[C@H]3CC[C@]12C; test: cells, lysate or membranes; conditions: 28°C, pH 7.0 Hepes, 10 mM Ca2+, 1 mM DTT, labelled compound
[8] = system: [H][C@@]12CC=C3C[C@@H](OS(=O)(=O)O)CC[C@]3(C)[C@@]1([H])CC[C@]1(C)C(=O)CC[C@@]21[H]; test: cells, lysate or membranes; conditions: 28°C, pH 7.0 Hepes, 10 mM Ca2+, 1 mM DTT, labelled compound
[9] = system: CC(=O)[C@H]1CC[C@H]2[C@@H]3CC=C4C[C@@H](OS(=O)(=O)O)CC[C@]4(C)[C@H]3CC[C@]12C; test: cells, lysate or membranes; conditions: 28°C, pH 7.0 Hepes, 10 mM Ca2+, 1 mM DTT, labelled compound

Chain of zebrafish Sts (zfSts, zfSts_tv1) (Danio rerio, UniProt A0ACD6B647) (A0ACD6B647 21-584): as the sequence (A0ACD6B647 21-584, stated change not applied) above

C[C@]12CC[C@@H]3c4ccc(OS(N)(=O)=O)cc4CC[C@H]3[C@@H]1CCC2=O [EMATE]
% inhibition at 0.1 μM [1]: EMATE also inhibited the activity zebrafish Sts_tv1 and human STS
% inhibition at 0.1 μM [2]: EMATE also inhibited the activity zebrafish Sts_tv1 and human STS

NS(=O)(=O)Oc1ccc2c3c(c(=O)oc2c1)CCCCC3 [STX64]
% inhibition at 0.1 μM [3]: 93%
inhibition at 0.1 µM [4]: 88.3%

zebrafish Sts (zfSts, zfSts_tv1) (Danio rerio; I88V/L437F/N388K)
Km [5]: 4.32 ± 0.49 µM
Vmax [5]: 0.00126 µmol/min/mg
Km [6]: 2.07 ± 0.29 µM
Vmax [6]: 0.00107 µmol/min/mg
Km [7]: 0.62 ± 0.06 µM
Vmax [7]: 8.12e-05 µmol/min/mg
Km [8]: 19.38 ± 3.07 µM
Vmax [8]: 0.000374 µmol/min/mg
Km [9]: 0.18 ± 0.01 µM
Vmax [9]: 0.000104 µmol/min/mg
